From patent US20070060521A1

B1: … (SEQ ID NO:16) (peptide, not shown: large carriers)
peptide: FSYPLTRAPLNMGGGS
B2: … (SEQ ID NO:13) (peptide, not shown: large carriers)
peptide: QDVHLTQQSRYTGGGS
B3: … (SEQ ID NO:14) (peptide, not shown: large carriers)
peptide: SHPWNAQRELSVGGGS
B4: … (SEQ ID NO:15) (peptide, not shown: large carriers)
peptide: YPAPQPLVTKTSGGGS
B5: HAIYPRN (SEQ ID NO:17) (peptide, not shown: small tags and cut ends; large carriers)
peptide: HAIYPRN
B6: ASTLPKA (SEQ ID NO:18) (peptide, not shown: small tags and cut ends; large carriers)
peptide: ASTLPKA
B7: IQSPHFF (SEQ ID NO:19) (peptide, not shown: small tags and cut ends; large carriers)
peptide: IQSPHFF

The binders below were run against GST-Stat3 fusion protein (full-length STAT3 fused to bacterial glutathione S-transferase) (assay: phage display panning on GST-Stat3, clones sequenced after selection).
GST-Stat3 fusion protein (full-length STAT3 fused to bacterial glutathione S-transferase), sequence (P40763 whole entry, the tested form may be a part): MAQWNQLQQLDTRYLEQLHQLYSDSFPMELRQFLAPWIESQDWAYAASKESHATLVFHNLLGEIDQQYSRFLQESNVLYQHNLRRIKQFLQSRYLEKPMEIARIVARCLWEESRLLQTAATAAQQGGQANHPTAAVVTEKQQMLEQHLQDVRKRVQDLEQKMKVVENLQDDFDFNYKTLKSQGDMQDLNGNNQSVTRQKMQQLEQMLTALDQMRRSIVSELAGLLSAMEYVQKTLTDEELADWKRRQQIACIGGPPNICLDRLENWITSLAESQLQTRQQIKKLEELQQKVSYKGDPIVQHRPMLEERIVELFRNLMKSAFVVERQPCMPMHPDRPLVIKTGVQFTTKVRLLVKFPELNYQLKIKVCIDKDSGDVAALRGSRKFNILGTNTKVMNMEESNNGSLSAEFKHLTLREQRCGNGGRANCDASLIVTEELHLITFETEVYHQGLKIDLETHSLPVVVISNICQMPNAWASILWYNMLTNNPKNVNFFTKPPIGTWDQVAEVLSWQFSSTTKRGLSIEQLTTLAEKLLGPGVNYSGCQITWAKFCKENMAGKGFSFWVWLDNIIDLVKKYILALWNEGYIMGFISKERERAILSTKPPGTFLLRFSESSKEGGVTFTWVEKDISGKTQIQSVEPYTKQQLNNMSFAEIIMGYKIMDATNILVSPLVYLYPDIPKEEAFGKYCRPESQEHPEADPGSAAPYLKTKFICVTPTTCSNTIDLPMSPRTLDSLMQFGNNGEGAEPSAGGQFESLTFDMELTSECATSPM

First: B1
Second: B2
The Frequency (out of 100 clones) of the first is lower: 8% for the first, 13% for the second.

Compared with B3, B4 is lower in Frequency (out of 100 clones): 9% for the first, 8% for the second.

The binders below were run against GST fusion protein containing the isolated SH2 domain of STAT3 (assay: phage display panning on the isolated SH2 domain of STAT3, clones sequenced after selection).
GST fusion protein containing the isolated SH2 domain of STAT3, sequence (P40763 580-670): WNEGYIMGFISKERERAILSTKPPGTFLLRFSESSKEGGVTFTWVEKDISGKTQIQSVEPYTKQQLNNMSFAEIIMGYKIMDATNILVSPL

Compared with B5, B6 is lower in Frequency (out of 100 clones): 16% for the first, 7% for the second.

B7 gave a Frequency (out of 100 clones) of 6%.
